B1: XPA23 Fab, heavy chain V50N (Fab, V domains shown)
VH: EVQLLESGGGLVQPGGSLRLSCAASGFTFSKYFMFWVRQAPGKGLEWVSNISPSGGMTRYADSVKGRFTISRDNSKNTLYLQMNSLRAEDTAVYYCARVGYGGNSDYWGQGTLVTVSS
VL: DIQMTQSPSSVSASVGDRLTIICRASQDINRWLAWYQQTPGNAPKLLIHSATSLQSGVPSRFSGSGSGTDFTLTINSLQPEDFATYYCQQADSFPLTFGGGTKVEIK
B2: XPA23 Fab, heavy chain D106K (Fab, V domains shown)
VH: EVQLLESGGGLVQPGGSLRLSCAASGFTFSKYFMFWVRQAPGKGLEWVSVISPSGGMTRYADSVKGRFTISRDNSKNTLYLQMNSLRAEDTAVYYCARVGYGGNSKYWGQGTLVTVSS
VL: DIQMTQSPSSVSASVGDRLTIICRASQDINRWLAWYQQTPGNAPKLLIHSATSLQSGVPSRFSGSGSGTDFTLTINSLQPEDFATYYCQQADSFPLTFGGGTKVEIK
B3: XPA23 Fab, heavy chain D106R (Fab, V domains shown)
VH: EVQLLESGGGLVQPGGSLRLSCAASGFTFSKYFMFWVRQAPGKGLEWVSVISPSGGMTRYADSVKGRFTISRDNSKNTLYLQMNSLRAEDTAVYYCARVGYGGNSRYWGQGTLVTVSS
VL: DIQMTQSPSSVSASVGDRLTIICRASQDINRWLAWYQQTPGNAPKLLIHSATSLQSGVPSRFSGSGSGTDFTLTINSLQPEDFATYYCQQADSFPLTFGGGTKVEIK
B4: XPA23 Fab, heavy chain D106F (Fab, V domains shown)
VH: EVQLLESGGGLVQPGGSLRLSCAASGFTFSKYFMFWVRQAPGKGLEWVSVISPSGGMTRYADSVKGRFTISRDNSKNTLYLQMNSLRAEDTAVYYCARVGYGGNSFYWGQGTLVTVSS
VL: DIQMTQSPSSVSASVGDRLTIICRASQDINRWLAWYQQTPGNAPKLLIHSATSLQSGVPSRFSGSGSGTDFTLTINSLQPEDFATYYCQQADSFPLTFGGGTKVEIK
B5: XPA23 Fab, heavy chain D106E (Fab, V domains shown)
VH: EVQLLESGGGLVQPGGSLRLSCAASGFTFSKYFMFWVRQAPGKGLEWVSVISPSGGMTRYADSVKGRFTISRDNSKNTLYLQMNSLRAEDTAVYYCARVGYGGNSEYWGQGTLVTVSS
VL: DIQMTQSPSSVSASVGDRLTIICRASQDINRWLAWYQQTPGNAPKLLIHSATSLQSGVPSRFSGSGSGTDFTLTINSLQPEDFATYYCQQADSFPLTFGGGTKVEIK
B6: XPA23 Fab, heavy chain D106Q (Fab, V domains shown)
VH: EVQLLESGGGLVQPGGSLRLSCAASGFTFSKYFMFWVRQAPGKGLEWVSVISPSGGMTRYADSVKGRFTISRDNSKNTLYLQMNSLRAEDTAVYYCARVGYGGNSQYWGQGTLVTVSS
VL: DIQMTQSPSSVSASVGDRLTIICRASQDINRWLAWYQQTPGNAPKLLIHSATSLQSGVPSRFSGSGSGTDFTLTINSLQPEDFATYYCQQADSFPLTFGGGTKVEIK
B7: XPA23 Fab, heavy chain D106H (Fab, V domains shown)
VH: EVQLLESGGGLVQPGGSLRLSCAASGFTFSKYFMFWVRQAPGKGLEWVSVISPSGGMTRYADSVKGRFTISRDNSKNTLYLQMNSLRAEDTAVYYCARVGYGGNSHYWGQGTLVTVSS
VL: DIQMTQSPSSVSASVGDRLTIICRASQDINRWLAWYQQTPGNAPKLLIHSATSLQSGVPSRFSGSGSGTDFTLTINSLQPEDFATYYCQQADSFPLTFGGGTKVEIK
B8: XPA23 Fab, heavy chain D106N (Fab, V domains shown)
VH: EVQLLESGGGLVQPGGSLRLSCAASGFTFSKYFMFWVRQAPGKGLEWVSVISPSGGMTRYADSVKGRFTISRDNSKNTLYLQMNSLRAEDTAVYYCARVGYGGNSNYWGQGTLVTVSS
VL: DIQMTQSPSSVSASVGDRLTIICRASQDINRWLAWYQQTPGNAPKLLIHSATSLQSGVPSRFSGSGSGTDFTLTINSLQPEDFATYYCQQADSFPLTFGGGTKVEIK

These binders were tested against T1, IL-1beta (UniProt P01584 117-269) (assay: Biacore).
T1 construct: also called IL-1β

Q: For B1, which “fold difference in affinity vs parental” value is on record?
A: 0.03 fold

Q: With B2 as the binder, how does the “fold difference in affinity vs parental” value read?
A: 0.04 fold

Q: B3 was tested. Which “fold difference in affinity vs parental” value did it give?
A: 0.06 fold

Q: Does B4 bind?
A: no binding

Q: How did the “fold difference in affinity vs parental” value turn out when B5 was run?
A: 0.04 fold

Q: For B6, which “fold difference in affinity vs parental” value is on record?
A: 0.02 fold

Q: Which “fold difference in affinity vs parental” value does the source give for B7 here?
A: 0.02 fold

Q: For B8, which “fold difference in affinity vs parental” value is on record?
A: 0.07 fold
